± gives the uncertainty stated by the source.
B1: SWI/SNF complex subunit SMARCC2, residues 599 to 641; numbered along this chain, Q8TAQ2 (parent)
chain: REWTEQETLLLLEALEMYKDDWNKVSEHVGSRTQDECILHFLR

Variants of: B1
Experiment: abundance fitness (aPCA) (normalised: wild type 0, dead -1); higher = more abundant; growth selection in yeast, the domain comes from the species named
Conditions: Homo sapiens

Q: With REWTEKETLLLLEALEMYKDDWNKVSEHVGSRTQDECILHFLR [Q6K] as the variant, how does the abundance fitness read?
A: -0.167 ± 0.12

Q: With REWTEDETLLLLEALEMYKDDWNKVSEHVGSRTQDECILHFLR [Q6D] as the variant, how does the abundance fitness read?
A: -0.133 ± 0.09

Q: For REWTEFETLLLLEALEMYKDDWNKVSEHVGSRTQDECILHFLR [Q6F], which abundance fitness is on record?
A: -0.211 ± 0.13

Q: Which abundance fitness does the source give for REWTECETLLLLEALEMYKDDWNKVSEHVGSRTQDECILHFLR [Q6C] here?
A: -0.394 ± 0.15

Q: Which abundance fitness does the source give for REWTEGETLLLLEALEMYKDDWNKVSEHVGSRTQDECILHFLR [Q6G] here?
A: 0.002 ± 0.089

Q: With REWTEMETLLLLEALEMYKDDWNKVSEHVGSRTQDECILHFLR [Q6M] as the variant, how does the abundance fitness read?
A: 0.144 ± 0.073

Q: Which abundance fitness does the source give for REWTEAETLLLLEALEMYKDDWNKVSEHVGSRTQDECILHFLR [Q6A] here?
A: 0.117 ± 0.074

Q: For REWTEIETLLLLEALEMYKDDWNKVSEHVGSRTQDECILHFLR [Q6I], which abundance fitness is on record?
A: -0.04 ± 0.37

Q: With REWTELETLLLLEALEMYKDDWNKVSEHVGSRTQDECILHFLR [Q6L] as the variant, how does the abundance fitness read?
A: -0.116 ± 0.068

Q: With REWTEEETLLLLEALEMYKDDWNKVSEHVGSRTQDECILHFLR [Q6E] as the variant, how does the abundance fitness read?
A: -0.485 ± 0.16

Q: Which abundance fitness does the source give for REWTEHETLLLLEALEMYKDDWNKVSEHVGSRTQDECILHFLR [Q6H] here?
A: -0.282 ± 0.15

Q: Which abundance fitness does the source give for LEWTEQETLLLLEALEMYKDDWNKVSEHVGSRTQDECILHFLR [R1L] here?
A: 0.094 ± 0.083

Q: With TEWTEQETLLLLEALEMYKDDWNKVSEHVGSRTQDECILHFLR [R1T] as the variant, how does the abundance fitness read?
A: 0.287 ± 0.081

Q: With IEWTEQETLLLLEALEMYKDDWNKVSEHVGSRTQDECILHFLR [R1I] as the variant, how does the abundance fitness read?
A: 0.382 ± 0.083

Q: Which abundance fitness does the source give for EEWTEQETLLLLEALEMYKDDWNKVSEHVGSRTQDECILHFLR [R1E] here?
A: 0.251 ± 0.11

Q: Which abundance fitness does the source give for AEWTEQETLLLLEALEMYKDDWNKVSEHVGSRTQDECILHFLR [R1A] here?
A: 0.244 ± 0.084

Q: With DEWTEQETLLLLEALEMYKDDWNKVSEHVGSRTQDECILHFLR [R1D] as the variant, how does the abundance fitness read?
A: 0.232 ± 0.092

Q: For CEWTEQETLLLLEALEMYKDDWNKVSEHVGSRTQDECILHFLR [R1C], which abundance fitness is on record?
A: 0.225 ± 0.075

Q: With FEWTEQETLLLLEALEMYKDDWNKVSEHVGSRTQDECILHFLR [R1F] as the variant, how does the abundance fitness read?
A: 0.36 ± 0.11

Q: For KEWTEQETLLLLEALEMYKDDWNKVSEHVGSRTQDECILHFLR [R1K], which abundance fitness is on record?
A: 0.35 ± 0.12

Q: With YEWTEQETLLLLEALEMYKDDWNKVSEHVGSRTQDECILHFLR [R1Y] as the variant, how does the abundance fitness read?
A: 0.033 ± 0.095

Q: With PEWTEQETLLLLEALEMYKDDWNKVSEHVGSRTQDECILHFLR [R1P] as the variant, how does the abundance fitness read?
A: -0.025 ± 0.18

Q: For VEWTEQETLLLLEALEMYKDDWNKVSEHVGSRTQDECILHFLR [R1V], which abundance fitness is on record?
A: 0.316 ± 0.067

Q: Which abundance fitness does the source give for GEWTEQETLLLLEALEMYKDDWNKVSEHVGSRTQDECILHFLR [R1G] here?
A: 0.142 ± 0.057

Q: Which abundance fitness does the source give for QEWTEQETLLLLEALEMYKDDWNKVSEHVGSRTQDECILHFLR [R1Q] here?
A: 0.526 ± 0.23

Q: With HEWTEQETLLLLEALEMYKDDWNKVSEHVGSRTQDECILHFLR [R1H] as the variant, how does the abundance fitness read?
A: -0.26 ± 0.23

Q: Which abundance fitness does the source give for MEWTEQETLLLLEALEMYKDDWNKVSEHVGSRTQDECILHFLR [R1M] here?
A: 0.298 ± 0.12

Q: Which abundance fitness does the source give for REGTEQETLLLLEALEMYKDDWNKVSEHVGSRTQDECILHFLR [W3G] here?
A: -0.424 ± 0.13

Q: Which abundance fitness does the source give for REKTEQETLLLLEALEMYKDDWNKVSEHVGSRTQDECILHFLR [W3K] here?
A: 0.681 ± 0.43

Q: For REVTEQETLLLLEALEMYKDDWNKVSEHVGSRTQDECILHFLR [W3V], which abundance fitness is on record?
A: -0.203 ± 0.23

Q: Which abundance fitness does the source give for RESTEQETLLLLEALEMYKDDWNKVSEHVGSRTQDECILHFLR [W3S] here?
A: -0.317 ± 0.1

Q: With RETTEQETLLLLEALEMYKDDWNKVSEHVGSRTQDECILHFLR [W3T] as the variant, how does the abundance fitness read?
A: -0.202 ± 0.15

Q: For REETEQETLLLLEALEMYKDDWNKVSEHVGSRTQDECILHFLR [W3E], which abundance fitness is on record?
A: -0.431 ± 0.16

Q: With REATEQETLLLLEALEMYKDDWNKVSEHVGSRTQDECILHFLR [W3A] as the variant, how does the abundance fitness read?
A: -0.539 ± 0.25

Q: Which abundance fitness does the source give for REDTEQETLLLLEALEMYKDDWNKVSEHVGSRTQDECILHFLR [W3D] here?
A: 0.1 ± 0.12

Q: With RELTEQETLLLLEALEMYKDDWNKVSEHVGSRTQDECILHFLR [W3L] as the variant, how does the abundance fitness read?
A: -0.168 ± 0.075

Q: Which abundance fitness does the source give for REQTEQETLLLLEALEMYKDDWNKVSEHVGSRTQDECILHFLR [W3Q] here?
A: -0.247 ± 0.17

Q: For REITEQETLLLLEALEMYKDDWNKVSEHVGSRTQDECILHFLR [W3I], which abundance fitness is on record?
A: -0.275 ± 0.41

Q: With RECTEQETLLLLEALEMYKDDWNKVSEHVGSRTQDECILHFLR [W3C] as the variant, how does the abundance fitness read?
A: -0.518 ± 0.19

Q: For REYTEQETLLLLEALEMYKDDWNKVSEHVGSRTQDECILHFLR [W3Y], which abundance fitness is on record?
A: -0.354 ± 0.23

Q: For REMTEQETLLLLEALEMYKDDWNKVSEHVGSRTQDECILHFLR [W3M], which abundance fitness is on record?
A: -0.181 ± 0.14

Q: Which abundance fitness does the source give for REPTEQETLLLLEALEMYKDDWNKVSEHVGSRTQDECILHFLR [W3P] here?
A: -0.045 ± 0.26

Q: With RENTEQETLLLLEALEMYKDDWNKVSEHVGSRTQDECILHFLR [W3N] as the variant, how does the abundance fitness read?
A: -0.226 ± 0.13

Q: For REHTEQETLLLLEALEMYKDDWNKVSEHVGSRTQDECILHFLR [W3H], which abundance fitness is on record?
A: -0.058 ± 0.29

Q: With RRWTEQETLLLLEALEMYKDDWNKVSEHVGSRTQDECILHFLR [E2R] as the variant, how does the abundance fitness read?
A: 0.165 ± 0.061

Q: For RGWTEQETLLLLEALEMYKDDWNKVSEHVGSRTQDECILHFLR [E2G], which abundance fitness is on record?
A: 0.184 ± 0.095

Q: With RTWTEQETLLLLEALEMYKDDWNKVSEHVGSRTQDECILHFLR [E2T] as the variant, how does the abundance fitness read?
A: 0.414 ± 0.076

Q: For RHWTEQETLLLLEALEMYKDDWNKVSEHVGSRTQDECILHFLR [E2H], which abundance fitness is on record?
A: 0.287 ± 0.074

Q: With RVWTEQETLLLLEALEMYKDDWNKVSEHVGSRTQDECILHFLR [E2V] as the variant, how does the abundance fitness read?
A: 0.247 ± 0.11

Q: For RKWTEQETLLLLEALEMYKDDWNKVSEHVGSRTQDECILHFLR [E2K], which abundance fitness is on record?
A: 0.344 ± 0.17

Q: With RQWTEQETLLLLEALEMYKDDWNKVSEHVGSRTQDECILHFLR [E2Q] as the variant, how does the abundance fitness read?
A: 0.403 ± 0.14

Q: Which abundance fitness does the source give for RLWTEQETLLLLEALEMYKDDWNKVSEHVGSRTQDECILHFLR [E2L] here?
A: 0.21 ± 0.071

Q: With RFWTEQETLLLLEALEMYKDDWNKVSEHVGSRTQDECILHFLR [E2F] as the variant, how does the abundance fitness read?
A: -0.463 ± 0.28

Q: For RYWTEQETLLLLEALEMYKDDWNKVSEHVGSRTQDECILHFLR [E2Y], which abundance fitness is on record?
A: 0.42 ± 0.16

Q: Which abundance fitness does the source give for RMWTEQETLLLLEALEMYKDDWNKVSEHVGSRTQDECILHFLR [E2M] here?
A: 0.135 ± 0.18

Q: For RSWTEQETLLLLEALEMYKDDWNKVSEHVGSRTQDECILHFLR [E2S], which abundance fitness is on record?
A: 0.37 ± 0.076

— the Human Domainome abundance scans (Beltran et al. 2025)
